These results are taken from patent publication US8574882B2, “Thermostable 1,5-anhydroglucitol dehydrogenase, and method for measurement of 1,5-anhydroglucitol by using the same” (Nippon Kayaku Kabushiki Kaisha, priority 2008, dated 2013).

Where a chain is given by its changes, count along the chain named. Names may count otherwise.

The subject of series [1] is 1,5-AG dehydrogenase (Ver. 0). Kind of series: Substrate specificity of parent strain-derived 1,5-AG dehydrogenase. The note with it: activity for 1,5-AG as 100%; Ver. 0, 40%-saturated ammonium sulfate precipitate fraction. Format: biochemical, Pseudomonas sp. NK-85001. The protocol:
(§1) The components other than the crude enzyme solution are mixed and kept at 37° C. for 10 minutes. Then, the crude enzyme solution is added to the reaction solution to initiate reaction. Decrease in absorbance at 600 nm for 1 minute with the temperature kept at 37° C. is determined.
A precipitate fraction of 40%-saturated ammonium sulfate was collected by centrifugation and dissolved in a 50 mM sodium phosphate buffer, pH 7.5.

Series [2] can be described thus: 1,5-AG dehydrogenase activity determination of crude enzyme solution (L-sorbose, DCIP, 1-m-PMS, decrease in absorbance at 600 nm). Format: biochemical. The method, then:
The E. coli JM109 strains transformed with the pTrc-PS15DH vectors confirmed in the paragraph (I) to have the insert fragment were inoculated to 3 mL of an LB medium containing 100 μg/mL ampicillin and cultured at 28° C. for 14 hours. Of this culture solution, a 0.2 mL aliquot was inoculated to 10 mL of an LB medium (containing 100 μg/mL ampicillin). Approximately 3 hours later, the rise of OD600 of the culture solution to 0.4 to 0.7 was confirmed, and 1,5-AG dehydrogenase expression in E. coli was then induced by the addition of 0.1 M IPTG (final concentration: 0.1 mM) to the medium. This culture solution was further cultured overnight at 28° C. and centrifuged at 10000×g for 5 minutes to precipitate cells. The supernatant was removed, and the pellet was then washed twice with a 0.85% aqueous NaCl solution. Cells were precipitated by centrifugation. Then, the microbial cells were suspended in 1 mL of a 50 mM sodium phosphate buffer, pH 7.5. Triton X-100 was added thereto at a concentration of 0.25%, and the microbial cells were disrupted using a bead impact-type cell disrupter MINI-BEAD BEATER (30 seconds×4, manufactured by Central Scientific Commerce, Inc.) while cooled in ice. After centrifugation at 20000×g for 10 minutes, the supernatant was examined as a crude enzyme solution for its 1,5-AG dehydrogenase activity. The composition of the reaction solution is as described below. Since the 1,5-AG dehydrogenase also reacts with L-sorbose as its substrate, L-sorbose was used for convenience instead of 1,5-AG in the enzymatic activity determination.
Composition of Reaction Solution:
as §1
The enzymatic activity can be determined according to the following equation: Enzymatic activity (U/mL)=(Δ600/min×0.6 (mL)×dilution ratio of crude enzyme solution)/(16.3×0.01 (mL)).
(§2) The E. coli JM109 containing the gene encoding each thermostable 1,5-AG dehydrogenase obtained in the paragraphs to [4] of EXAMPLE 2 was transplanted to 10 mL of an LB liquid medium containing 50 μg/mL ampicillin and 0.1 mM IPTG and shake-cultured at 30° C. for 16 hours. 10 mL of the shake-culture solution was centrifuged at 10000 rpm for 5 minutes. The culture supernatant was removed, and the pellet was then washed twice with a 0.85% aqueous NaCl solution. These microbial cells were suspended in 1 mL of a 50 mM sodium phosphate buffer (pH 7.5) containing 0.25% Triton X-100. The microbial cells were disrupted using a bead impact-type cell disrupter MINI-BEAD BEATER (30 seconds×4, manufactured by Central Scientific Commerce, Inc.) while cooled in ice. After centrifugation at 15000 rpm for 10 minutes, the supernatant was used as a crude enzyme solution. When the crude enzyme solution was heat-treated, the treatment was performed for 10 minutes in a water bath of 45° C., 50° C., 55° C. or 60° C.
(§3) The enzymatic activity of the 1,5-AG dehydrogenase was calculated by measurement by the same approach as that described in the paragraph (J) of EXAMPLE 1.
(§4) A specific activity that represents the enzymatic activity of the 1,5-AG dehydrogenase per mg of the crude enzyme solution was calculated according to the following equation: Specific activity (U/mg)=enzymatic activity (U/mL)/protein concentration of crude enzyme solution (mg/mL). Moreover, the rate of residual activity was calculated according to the following equation: Rate of residual activity (%)=(specific activity of crude enzyme solution after heat treatment/specific activity of crude enzyme solution before heat treatment)×100.
The 1,5-AG dehydrogenase activity was determined based on the method described in EXAMPLE 1, and its specific activity was determined according to the equation described in EXAMPLE 3.

Series [3] can be described thus: Stability of thermostable 1,5-AG dehydrogenase at heat treatment temperature (rate of residual activity). The class given is physicochemical. The conditions noted are these: for Rate of residual activity after 10-minute treatment at 45° C. / Rate of residual activity after 10-minute treatment at 50° C. / Rate of residual activity after 10-minute treatment at 55° C. / Rate of residual activity after 10-minute treatment at 60° C.: crude enzyme solution, 10 minutes; for Rate of residual activity after 10-minute treatment at 45° C.: water bath 45° C.; for Rate of residual activity after 10-minute treatment at 50° C.: water bath 50° C.; for Rate of residual activity after 10-minute treatment at 55° C.: water bath 55° C.; for Rate of residual activity after 10-minute treatment at 60° C.: water bath 60° C. The method, then:
as §2, §3, §4

[4] abbreviates: crude enzyme solution, L-sorbose as substrate, 37° C.

`OC[C@H]1O[C@H](O[C@H]2[C@H](O)[C@@H](O)C(O)O[C@@H]2CO)[C@H](O)[C@@H](O)[C@@H]1O` (mixture of isomers) [Maltose]: the Relative activity in series [1] was 0.2%.
For the molecule `OC[C@H]1OC[C@H](O)[C@@H](O)[C@@H]1O` [1,5-AG, 1,5-anhydroglucitol], the Relative activity in series [1] stood at 100%.
Same read-out and setting: to `O=C[C@H](O)[C@@H](O)[C@@H](O)[C@H](O)CO` [Galactose] belongs 0%; to `O=C(CO)[C@@H](O)[C@H](O)[C@@H](O)CO` [L-sorbose], 54%; to `OC[C@@H](O)[C@H](O)[C@@H](O)CO` [Xylitol], 0%.

B1: Ver. 0: recombinant parent strain (Pseudomonas sp. NK-85001)-derived 1,5-AG dehydrogenase, SEQ ID NO: 4, no thermostability (protein)
chain: MEFGGQPDIVIIGSGIGGASIAAGLSASGADILILEAGESLPDRPENRDPHAIFQRGFFRPKEFWYETDGTPFNPGNYYNVGGNSKFYGAVLVRYRREDFEELAHLEGVSPAWPFAYDELEPWYCKAEELFQVRGELGDDPTEPYHSKPYSYPAIRDESPIADLRARLKKAGLHPASLPLGVDIERWLAKAKTPWDAHPNSNDGKMDAETCPLALALKHPNVGLETSARVTKLETGPDGKTIVAVHYVKNGEALVLRPKLVILSAGAVQSAALLLRSGLANRSDQVGRNFMNHNASAVIGFDPRYRNDSVYQKTFGFNDYYLSDGAGGPPLGNVQLLGRVSGAILKSNMRQVPEWFLNRIAGHTIDFYAMSEDLPSPESRVSVDGDRIILHWVRSNWKAHLMLVDKLKSALRAAGFPVVLSRAFDRRTPSHQCGTVRIGDNPATAPLDPYCRAYDHPNLYVVDASFLPTSAAVNPALTIAAQALRVADHLNREVLA
modifications: Pseudomonas sp. NK-85001
For B1, the “Enzymatic activity of the crude enzyme solution” value in series [2] (E. coli JM109 / pTrc-PS15DH, L-sorbose as substrate, 37° C.) amounted to 4.4 U/mL. The molecule also displayed a Specific activity in series [2] (setting [4]) of 1.2 U/mg. The “Rate of residual activity after 10-minute treatment at 45° C.” value (“Rate of residual activity … at 45° C.” for short) in series [3] is 3.0%.

B2: Ver. 3.0: thermostable 1,5-AG dehydrogenase, protein 19); net vs SEQ ID NO: 4: A37T, P50Q, G362R (protein)
chain: B1 chain with A37T, P50Q, G362R
modifications: Pseudomonas sp. NK-85001
B2 came in with a Specific activity in series [2] (setting [4]) of 2.8 U/mg. The “Rate of residual activity … at 45° C.” value in series [3] was found to be 40.0%.

B3: Ver. 2.0: thermostable 1,5-AG dehydrogenase, SEQ ID NO: 22; net vs SEQ ID NO: 4: Q6H, A37T, P50Q (protein)
chain: B1 chain with Q6H, A37T, P50Q
modifications: Mutated 1,5-anhydroglucitol dehydrogenase gene
Take B3: the Specific activity in series [2] (setting [4]) is 1.4 U/mg; in series [2] (purification step: CFE (cell-free extracts)) it was 4.39 U/mg; in series [2] (purification step: ammonium sulfate precipitation), 13.8 U/mg; in series [2] (purification step: desalting and concentration), 13.5 U/mg; in series [2] (purification step: weak anion-exchange chromatography (DEAE FF)), 13.5 U/mg. Besides, in series [3], the “Rate of residual activity … at 45° C.” value is 31.0%.

B4: Ver. 3.2: thermostable 1,5-AG dehydrogenase, protein 17); net vs SEQ ID NO: 4: A37T, P50Q, L164M, G362R (protein)
chain: B1 chain with A37T, P50Q, L164M, G362R
modifications: Pseudomonas sp. NK-85001
Consider B4, for which the Specific activity in series [2] (setting [4]) is given as 2.0 U/mg. Further, the “Thermostability compared with the version(s) it was prepared from” value in series [3] (Ver. 4.0 vs Ver. 3.2, Ver. 3.2 vs Ver. 3.0 and Ver. 3.1) was “improved thermostability”. Besides, in series [3], the “Rate of residual activity … at 45° C.” value worked out at 68.0% and the “Rate of residual activity after 10-minute treatment at 50° C.” value (from here on “Rate of residual activity … at 50° C.”) is 14.0%.

B5: Ver. 7.1: thermostable 1,5-AG dehydrogenase, SEQ ID NO: 23; Ver. 7.0 plus G4A (protein)
chain: B1 chain with G4A, S14T, A37T, P50Q, V93M, L164M, T235A, N348Y, G362R
modifications: Mutated 1,5-anhydroglucitol dehydrogenase gene
notes: Ver; 7.0 plus G4A
As for B5, in series [2] (setting [4]), the Specific activity was 2.8 U/mg. Besides, in series [3], the “Rate of residual activity … at 45° C.” value is 89.0%, the “Rate of residual activity … at 50° C.” value stood at 61.0% and the “Rate of residual activity after 10-minute treatment at 55° C.” value stood at 10.0%.

B6: Ver. 3.1: thermostable 1,5-AG dehydrogenase, protein 18); net vs SEQ ID NO: 4: A37T, P50Q, L164M (protein)
chain: B1 chain with A37T, P50Q, L164M
modifications: Pseudomonas sp. NK-85001
Molecule B6 came in with a Specific activity in series [2] (setting [4]) of 1.2 U/mg. Further, the “Rate of residual activity … at 45° C.” value in series [3] is recorded as 54.0%.

B7: Ver. 11.1: thermostable 1,5-AG dehydrogenase; SEQ ID NO: 1 having an arginine residue in place of proline at position 156 (protein)
chain: MEFAGQPDIVIIGTGIGGASIAAGLSASGADILILERGESLPDRPENRDQHAIFQRGFFRPKEFWYGTDGTPFNPGNYYYVGGNSKFYGAVLMRYRREDFEELAHLEGVSPAWPFAYDELEPWYCKAEELFQVRGELGDDPTEPYHSKPYSYPAIRDESPIADMRARLKKAGLHPASLPLGVDIERWLAKAKTPWDAHPNSDDGKMDAETCPLALALKHPNVGLETSARVTKLEAGPDGKTIVAVHYVKNGEALVLRPKLVILSAGAVQSAALLLRSGLANRSDQVGRNFMNHNASAVIGFDPRYRNDSVYQKTFGFNDYYLSDGAGGPPLGNVQLLGRVSGAILKSYMRQVPEWFLNRIARHTIDFYAMSEDLPSPESRVSVDGDRIILHWVRSNWKAHLMLVDKLKSALRAAGFPVVLSRAFDRRTPSHQCGTVRIGDNPATAPLDPYCRAYDHPNLYVVDASFLPTSAAANPALTIAAQALRVADHLNREVLA
modifications: Protein expressed by mutated 1,5-anhydroglucitol dehydrogenase gene
B7 gave a Specific activity in series [2] (setting [4]) of 0.8 U/mg. Moreover, in series [3], the “Rate of residual activity after 10-minute treatment at 60° C.” value was determined as 73%.

B8: Ver. 11.0: thermostable 1,5-AG dehydrogenase; SEQ ID NO: 1 having arginine at position 156 and valine at position 473 (protein)
chain: B7 chain with A473V
modifications: Protein expressed by mutated 1,5-anhydroglucitol dehydrogenase gene
B8 registered a Specific activity in series [2] (setting [4]) of 3.4 U/mg. For the same molecule, in series [3], the “Rate of residual activity … at 45° C.” value was 97.0%, the “Rate of residual activity … at 50° C.” value is 97.0% and the “Rate of residual activity after 10-minute treatment at 55° C.” value amounted to 81.0%.

B9: Ver. 12.0: thermostable 1,5-AG dehydrogenase comprising the amino acid sequence represented by SEQ ID NO: 1 (protein)
chain: B7 chain with R156P
modifications: Protein expressed by mutated 1,5-anhydroglucitol dehydrogenase gene
B9 displayed a Specific activity in series [2] (setting [4]) of 1.2 U/mg. The “Rate of residual activity after 10-minute treatment at 60° C.” value in series [3] is 76%.
